Reference: the supplement of paper PMC10567573

B1: ZNF8 (parent)
chain: RTHTGEKPYTCSVCGKSFSRTTCL

Variants of: B1
Assay: protein stability index of a GFP-peptide fusion (GPS, HEK-293T) (PSI 1-6); higher = more stable
Conditions: c terminus: a fixed tail appended
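Further: lentivirally expressed fusions sorted by FACS into six bins by GFP to DsRed ratio, PSI derived from sequencing read proportions per bin multiplied by bin number.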

Variant	protein stability index
RTSTGEKPYTCSVCGKSFSRTTCL	2.66
RTCTGEKPYTCSVCGKSFSRTTCL	2.77
RTMTGEKPYTCSVCGKSFSRTTCL	2.37
RTKTGEKPYTCSVCGKSFSRTTCL	2.05
RTWTGEKPYTCSVCGKSFSRTTCL	1.82
RTGTGEKPYTCSVCGKSFSRTTCL	2.86
RTATGEKPYTCSVCGKSFSRTTCL	1.86
RTQTGEKPYTCSVCGKSFSRTTCL	2.2
RTETGEKPYTCSVCGKSFSRTTCL	2.72
RTPTGEKPYTCSVCGKSFSRTTCL	2.46
RTHTGEKPDTCSVCGKSFSRTTCL	2.78
RTHTGEKPKTCSVCGKSFSRTTCL	2.08
RTHTGEKPSTCSVCGKSFSRTTCL	2.62
RTHTGEKPCTCSVCGKSFSRTTCL	3.77
RTHTGEKPFTCSVCGKSFSRTTCL	2.32
RTHTGEKPRTCSVCGKSFSRTTCL	2.29
RTHTGEKPATCSVCGKSFSRTTCL	2.3
RTHTGEKPWTCSVCGKSFSRTTCL	2.42
RTHTGEKPYTCSVCGKSFSCTTCL	5.54
RTHTGEKPYTCSVCGKSFSMTTCL	2.18
RTHTGEKPYTCSVCGKSFSATTCL	2.55
RTHTGEKPYTCSVCGKSFSYTTCL	2.91
RTHTGEKPYTCSVCGKSFSNTTCL	2.76
RTHTGEKPYTCSVCGKSFSFTTCL	2.15

Variant	protein stability index
RTHTGEKPYTCSVCGKSFSHTTCL	3.75
RTHTGEKPYTCSVCGKVFSRTTCL	2.67
RTHTGEKPYTCSVCGKYFSRTTCL	2.14
RTHTGEKPYTCSVCGKMFSRTTCL	2.03
RTHTGEKPYTCSVCGKQFSRTTCL	2.58
RTHTGEKPYTCSVCGKNFSRTTCL	2.36
RTHTGEKPYTCSVCGKCFSRTTCL	3.72
RTHTGEKPYTCSVCGKHFSRTTCL	2.69
RTHTGEKPYTCSVCGKDFSRTTCL	2.55
RTHTGEKPYTCSVCGKAFSRTTCL	2.48
RTHTGEKPYTCSVCGKGFSRTTCL	1.73
RTHTGEKPYTCSVCGKFFSRTTCL	1.48
RTHTKEKPYTCSVCGKSFSRTTCL	2.78
RTHTMEKPYTCSVCGKSFSRTTCL	2.48
RTHTAEKPYTCSVCGKSFSRTTCL	2.3
RTHTHEKPYTCSVCGKSFSRTTCL	2.25
RTHTLEKPYTCSVCGKSFSRTTCL	2.29
RTHTWEKPYTCSVCGKSFSRTTCL	2.74
RTHTNEKPYTCSVCGKSFSRTTCL	2.66
RTHTGEKPYQCSVCGKSFSRTTCL	2.6
RTHTGEKPYNCSVCGKSFSRTTCL	2.2
RTHTGEKPYDCSVCGKSFSRTTCL	2.43
RTHTGEKPYICSVCGKSFSRTTCL	2.65
RTHTGEKPYGCSVCGKSFSRTTCL	2.21

Variant	protein stability index
RTHTGEKPYECSVCGKSFSRTTCL	2.39
RTHTGEKPYTCSVCGKSFTRTTCL	2.41
RTHTGEKPYTCSVCGKSFCRTTCL	3.7
RTHTGEKPYTCSVCGKSFWRTTCL	2.42
RTHTGEKPYTCSVCGKSFVRTTCL	3.91
RTHTGEKPYTCSVCGKSFQRTTCL	2.65
RTHTGEKPYTCSVCGVSFSRTTCL	1.96
RTHTGEKPYTCSVCGTSFSRTTCL	1.94
RTHTGEKPYTCSVCGYSFSRTTCL	1.87
RTHTGEKPYTCSVCGMSFSRTTCL	2.2
RTHTGEKPYTCSVCGASFSRTTCL	1.85
RTHTGEKPYTCSVCGISFSRTTCL	1.74
RTHTGEKPYTCHVCGKSFSRTTCL	2.41
RTHTGEKPYTCRVCGKSFSRTTCL	2.21
RTHTGEKPYTCGVCGKSFSRTTCL	2.02
RTHTGEKPYTCCVCGKSFSRTTCL	2.13
RTHTGEKPYTCWVCGKSFSRTTCL	2.17
RTHTGEKPYTCLVCGKSFSRTTCL	2.22
RTHTGEKPYTCTVCGKSFSRTTCL	2.52
RTHTGEKPYTCSVCGKSFSRVTCL	2.36
RTHTGEKPYTCSVCGKSFSRRTCL	2.39
RTHTGEKPYTCSVCGKSFSRCTCL	5.19
RTHTGEKPYTCSVCGKSFSRDTCL	3.37
RTHTGEKPYTCSVCGKSFSRATCL	2.7

Variant	protein stability index
RTHTGECPYTCSVCGKSFSRTTCL	2.72
RTHTGERPYTCSVCGKSFSRTTCL	2.49
RTHTGEQPYTCSVCGKSFSRTTCL	2.08
RTHTGEPPYTCSVCGKSFSRTTCL	2.96
RTHTGEDPYTCSVCGKSFSRTTCL	2.17
RTHTGETPYTCSVCGKSFSRTTCL	2.49
RTHTGEGPYTCSVCGKSFSRTTCL	3.25
RTHTGEKPYTCSVLGKSFSRTTCL	2.76
RTHTGEKPYTCSVFGKSFSRTTCL	2.1
RTHTGEKPYTCSVGGKSFSRTTCL	1.99
RTHTGEKPYTCSVSGKSFSRTTCL	2.41
RTHTGEKPYTCSVWGKSFSRTTCL	1.42
RTHTGEKPYTCSVRGKSFSRTTCL	2.19
RTHTGEKPYTCSVHGKSFSRTTCL	2.89
RTHTGEKPYTCSVCGKSFSRTMCL	1.63
RTHTGEKPYTCSVCGKSFSRTPCL	2.43
RTHVGEKPYTCSVCGKSFSRTTCL	1.93
RTHLGEKPYTCSVCGKSFSRTTCL	2.18
RTHSGEKPYTCSVCGKSFSRTTCL	2.77
RTHPGEKPYTCSVCGKSFSRTTCL	2.22
RTHEGEKPYTCSVCGKSFSRTTCL	3.43
RTHCGEKPYTCSVCGKSFSRTTCL	2.32
